Results on three molecules are retold here after patent KR20220147765A (dated 2022).

Numbering of substitutions follows the chain as printed.

The labels stand for the following.
B1: RB6 (antibody, V domains shown)
VH: EVQLLESGGGLVQPGGSLRLSCAASGFTFSSYDMSWVRQAPGKGLEWVSGISYSGGSTYYADSVKGRFTISRDNSKNTLYLQMNSLRAEDTAVYYCARDVNFVPLVTFDYWGQGTLVTVSS
VL: QSVLTQPPSASGTPGQRVTLSCTGSSSNIGSNSVTWYQQLPGTAPKLLIYDDNQRPSGVPDRFSGSKSGTSASLAISGLRSEDEADYYCGTWDYSLSAYVFGGGTKLTVL
notes: also called SARS-CoV-2 RBD 특이적 IgG 선별항체 RB6; clone RB6
B2: RD10 (antibody, V domains shown)
VH: EVQLLESGGGLVQPGGSLRLSCAASGFTFSDYAMSWVRQAPGKGLEWVSAIYPGGGSTYYADSVKGRFTISRDNSKNTLYLQMNSLRAEDTAVYYCARNLFGFDYWGQGTLVTVSS
VL: B1 VL with L20I, S33A, T35Y, N53S, Q54N, T91S, Y94D
notes: also called SARS-CoV-2 RBD 특이적 IgG 선별항체 RD10; clone RD10
B3: RD3 (antibody, V domains shown)
VH: EVQLLESGGGLVQPGGSLRLSCAASGFTFSDYAMSWVRQAPGKGLEWVSWIYSGSGNKYYADSVKGRFTISRDNSKNTLYLQMNSLRAEDTAVYYCARFPIARTSNSQSSYDGMDVWGQGTLVTVSS
VL: B1 VL with L20I, T23S, S33A, T35S, D51A, Q54K, T91A, Y94S, S97N
notes: also called SARS-CoV-2 RBD 특이적 IgG 선별항체 RD3; clone RD3

This experiment has as its target T1, SARS-CoV S 단백질의 RBD 항원 (SARS-CoV, UniProt P59594 306-527).
T1 construct: also called SARS-CoV RBD
Kind of experiment: ELISA, 0.1 μg antigen coated, IgG4.
Take B1: the binding result is recorded as “binds”.
B2: the binding result is “binds”.
The value for B3 was “binds”.
